Laboratory results: patent publication US20260092093A1 (TJ BIOPHARMA SHANGHAI, published 2026)

T1: hIL-18Rα ECD-Fc fusion protein (human, UniProt Q13478 22-329)
T1 construct: extracellular domain; captured on Protein A sensor
T1 sequence (looked up): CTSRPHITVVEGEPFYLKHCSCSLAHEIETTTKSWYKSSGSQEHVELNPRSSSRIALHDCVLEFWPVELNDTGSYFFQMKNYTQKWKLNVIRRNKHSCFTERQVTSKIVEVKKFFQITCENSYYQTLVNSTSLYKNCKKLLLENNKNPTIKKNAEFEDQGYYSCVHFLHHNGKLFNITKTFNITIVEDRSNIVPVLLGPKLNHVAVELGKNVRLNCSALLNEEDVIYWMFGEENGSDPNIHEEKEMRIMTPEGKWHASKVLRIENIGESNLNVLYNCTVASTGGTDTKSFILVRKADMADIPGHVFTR

T2: recombinant hIL-18Rα extracellular domain (human, UniProt Q13478 22-329, biotin label (selection) or fluorescent probe (single-clone FACS), sites not given)
T2 construct: extracellular domain; also called hIL-18Rα ECD; hIL-18Rα-ECD
T2 sequence (looked up): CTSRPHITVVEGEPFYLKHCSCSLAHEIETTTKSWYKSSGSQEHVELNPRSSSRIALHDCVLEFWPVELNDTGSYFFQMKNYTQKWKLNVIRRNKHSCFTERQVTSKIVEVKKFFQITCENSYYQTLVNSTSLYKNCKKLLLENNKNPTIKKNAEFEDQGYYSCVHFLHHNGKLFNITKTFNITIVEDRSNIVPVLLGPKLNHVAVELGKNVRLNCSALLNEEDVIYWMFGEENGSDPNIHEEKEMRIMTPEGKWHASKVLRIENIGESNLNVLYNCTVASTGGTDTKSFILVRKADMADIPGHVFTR


Legend:
[1] = target: T1, hIL-18Rα ECD-Fc fusion protein; test: BLI (Octet RED96), hIL-18Rα ECD-Fc on Protein A sensor
Experimental: The affinities of IL-18 variant polypeptides for hIL-18Rα were assessed by Biolayer Interferometry (BLI) on Octet RED96 using Protein A sensor coated with hIL-18Rα ECD-Fc fusion protein, and WT hIL-18 was used as a control.

[2] = target: T2, recombinant hIL-18Rα extracellular …; test: single-clone FACS, yeast display, 10 nM labelled hIL-18Rα ECD
Experimental: Following the screens described in Example 2, single clone FACS analysis was performed to verify the binding of selected yeast cell surface-expressed IL-18 variant polypeptides from Round 4 and Round 5 to 10 nM hIL-18Rα-ECD. Briefly, each yeast clone at the same density was incubated with 10 nM IL-18Rα-ECD labeled by fluorescent probe, respectively, followed by washing step. Then the ratio of fluorescent positive IL-18Rα ECD binding yeasts in the population of each clone were analyzed.

Kd [1] [nM]	Response (nm) [1] [nm]	koff [1] [s⁻¹]	kon [1] [M⁻¹ s⁻¹]	% of fluorescence positive cells [2] [%]	Binder
38.8	0.0468	0.0149	383000	96	IL-18 variant polypeptide M5 (ligand) YFEKLTSKLSVIRNLNDQVLFIDQGNRPLFEDMTDSDCRDNAPRTIFIISMYKWSPWRGMAVTISVKCEKISTLSCENKIISFKEMNPPDVIKDTKSDIIFFQTSVPGHDNKMQFESSSYEGYFLACEKERDLFKLILKKEDELGDRSIMFTVQKED
68.2	0.08	0.0189	277000	83.6	IL-18 variant polypeptide M11 (ligand) YFPKLRSKLSVIRNLNDQVLFIDQGNRPLFEDMTDSDCRDNAPRTIFIISMYKSSRNRGMAVTISVKCEKISTLSCENKIISFKEMNPPDGIKDTKSDIIFFQTSVPGHDNKMQFESSSYEGYFLACEKERDLFKLILKKEDELGDRSIMFTVQNED
–	–	–	–	0.98	SEQ ID NO 109 (ligand) YFKKLPSKLSVIRNLNDQVLFIDQGNRPLFEDMTDSDCRDNAPRTIFIISMYKLSSERGMAVTISVKCEKISTLSCENKIISFKEMNPPDNIKDTKSDIIFFQRSVPGHDNKMQFESSSYEGYFLACEKERDLFKLILKKEDELGDRSIMFTVQNED
11.9	0.0222	0.0271	2.27e+06	93.8	IL-18 variant polypeptide M7 (ligand) YFPKLRSKLSVIRNLNDQVLFIDQGNRPLFEDMTDSDCRDNAPRTIFIISMYKHSTARGMAVTISVKCEKISTLSCENKIISFKEMNPPDAIKDTKSDIIFFQRSVPGHDNKMQFESSSYEGYFLACEKERDLFKLILKKEDELGDRSIMFTVQNED
–	–	–	–	0.35	SEQ ID NO 115 (ligand) YFPKLGSKLSVIRNLNDQVLFIDQGNRPLFEDMTDSDCRDNAPRTIFIISMYKISHDRGMAVTISVKCEKISTLSCENKIISFKEMNPPDTIKDTKSDIIFFQSSVPGHDNKMQFESSSYEGYFLACEKERDLFKLILKKEDELGDRSIMFTVQNED
–	–	–	–	0.15	SEQ ID NO 118 (ligand) YFPKLASKLSVIRNLNDQVLFIDQGNRPLFEDMTDSDCRDNAPRTIFIISMYKWSNARGMAVTISVKCEKISTLSCENKIISFKEMNPPDSIKDTKSDIIFFQRSVPGHDNKMQFESSSYEGYFLACEKERDLFKLILKKEDELGDRSIMFTVQNED
4.88	< 0.02	0.0108	2.21e+06	36.1	IL-18 variant polypeptide M9 (ligand) YFPKLRSKLSVIRNLNDQVLFIDQGNRPLFEDMTDSDCRDNAPRTIFIISMYKWSRARGMAVTISVKCEKISTLSCENKIISFKEMNPPDSIKDTKSDIIFFQSSVPGHDNKMQFESSSYEGYFLACEKERDLFKLILKKEDELGDRSIMFTVQNED
–	–	–	–	0.69	SEQ ID NO 112 (ligand) YFPKLRSKLSVIRNLNDQVLFIDQGNRPLFEDMTDSDCRDNAPRTIFIISMYKHSTNRGMAVTISVKCEKISTLSCENKIISFKEMNPPDIIKDTKSDIIFFQISVPGHDNKMQFESSSYEGYFLACEKERDLFKLILKKEDELGDRSIMFTVQNED
–	–	–	–	0.61	SEQ ID NO 113 (ligand) YFPKLRSKLSVIRNLNDQVLFIDQGNRPLFEDMTDSDCRDNAPRTIFIISMYKISISRGMAVTISVKCEKISTLSCENKIISFKEMNPPDNIKDTKSDIIFFQRSVPGHDNKMQFESSSYEGYFLACEKERDLFKLILKKEDELGDRSIMFTVQNED
2140	0.057	0.0431	20100	93.3	IL-18 variant polypeptide M3 (ligand) YFPKLKSKLSVIRNLNDQVLFIDQGNRPLFEDMTDSDCRDNAPRTIFIISMYKWSHVRGMAVTISVKCEKISTLSCENKIISFKEMNPPDAIKDTKSDIIFFQYSVPGHDNKMQFESSSYEGYFLACEKERDLFKLILKKEDELGDRSIMFTVQNED

Second part, the binder before the results:

Binder	Kd [1] [nM]	Response (nm) [1] [nm]	koff [1] [s⁻¹]	kon [1] [M⁻¹ s⁻¹]	% of fluorescence positive cells [2] [%]
IL-18 variant polypeptide M1 (ligand) YFPKLKSKLSVIRNLNDQVLFIDQGNRPLFEDMTDSDCRDNAPRTIFIISMYKHSDRRGMAVTISVKCEKISTLSCENKIISFKEMNPPDVIKDTKSDIIFFQVSVPGHDNKMQFESSSYEGYFLACEKERDLFKLILKKEDELGDRSIMFTVQNED	2030	0.0186	0.111	54400	89.8
SEQ ID NO 103 (ligand) YFSKLPSKLSVIRNLNDQVLFIDQGNRPLFEDMTDSDCRDNAPRTIFIISMYKWSPRRGMAVTISVKCEKISTLSCENKIISFKEMNPPDIIKDTKSDIIFFQSSVPGHDNKMQFESSSYEGYFLACEKERDLFKLILKKEDELGDRSIMFTVQNED	–	–	–	–	1.44
SEQ ID NO 106 (ligand) YFPKLSSKLSVIRNLNDQVLFIDQGNRPLFEDMTDSDCRDNAPRTIFIISMYKASSLRGMAVTISVKCEKISTLSCENKIISFKEMNPPDSIKDTKSDIIFFQRSVPGHDNKMQFESSSYEGYFLACEKERDLFKLILKKEDELGDRSIMFTVQNED	–	–	–	–	1.34
SEQ ID NO 108 (ligand) YFPKLGSKLSVIRNLNDQVLFIDQGNRPLFEDMTDSDCRDNAPRTIFIISMYKQSHYRGMAVTISVKCEKISTLSCENKIISFKEMNPPDNIKDTKSDIIFFQRSVPGHDNKMQFESSSYEGYFLACEKERDLFKLILKKEDELGDRSIMFTVQNED	–	–	–	–	1.08
SEQ ID NO 110 (ligand) YFPKLNSKLSVIRNLNDQVLFIDQGNRPLFEDMTDSDCRDNAPRTIFIISMYKLSPRRGMAVTISVKCEKISTLSCENKIISFKEMNPPDNIKDTKSDIIFFQRSVPGHDNKMQFESSSYEGYFLACEKERDLFKLILKKEDELGDRSIMFTVQNED	–	–	–	–	0.71
IL-18 variant polypeptide M10 (ligand) YFPKLRSKLSVIRNLNDQVLFIDQGNRPLFEDMTDSDCRDNAPRTIFIISMYKQSLWRGMAVTISVKCEKISTLSCENKIISFKEMNPPDSIKDTKSDIIFFQRSVPGHDNKMQFESSSYEGYFLACEKERDLFKLILKKEDELGDRSIMFTVQNED	48.6	0.0788	0.0235	483000	68.1
IL-18 variant polypeptide M2 (ligand) YFSKLKSKLSVIRNLNDQVLFIDQGNRPLFEDMTDSDCRDNAPRTIFIISMYKWSPDRGMAVTISVKCEKISTLSCENKIISFKEMNPPDGIKDTKSDIIFFQTSVPGHDNKMQFESSSYEGYFLACEKERDLFKLILKKEDELGDRSIMFTVQNED	12200	0.0184	0.0499	4090	91.6
IL-18 variant polypeptide M4 (ligand) YFPKLKSKLSVIRNLNDQVLFIDQGNRPLFEDMTDSDCRDNAPRTIFIISMYKWSGVRGMAVTISVKCEKISTLSCENKIISFKEMNPPDVIKDTKSDIIFFQFSVPGHDNKMQFESSSYEGYFLACEKERDLFKLILKKEDELGDRSIMFTVQNED	39.1	0.0326	0.017	436000	44.9
SEQ ID NO 107 (ligand) YFPKLTSKLSVIRNLNDQVLFIDQGNRPLFEDMTDSDCRDNAPRTIFIISMYKTSYERGMAVTISVKCEKISTLSCENKIISFKEMNPPDVIKDTKSDIIFFQRSVPGHDNKMQFESSSYEGYFLACEKERDLFKLILKKEDELGDRSIMFTVQNED	–	–	–	–	1.23
IL-18 variant polypeptide M12 (ligand) YFPKLKSKLSVIRNLNDQVLFIDQGNRPLFEDMTDSDCRDNAPRTIFIISMYKGSGARGMAVTISVKCEKISTLSCENKIISFKEMNPPDTIKDTKSDIIFFQRSVPGHDNKMQFESSSYEGYFLACEKERDLFKLILKKEDELGDRSIMFTVQNED	24.9	0.186	0.0107	427000	88.3
SEQ ID NO 111 (ligand) YFPKLESKLSVIRNLNDQVLFIDQGNRPLFEDMTDSDCRDNAPRTIFIISMYKYSSKRGMAVTISVKCEKISTLSCENKIISFKEMNPPDGIKDTKSDIIFFQRSVPGHDNKMQFESSSYEGYFLACEKERDLFKLILKKEDELGDRSIMFTVQNED	–	–	–	–	0.69
